Assays:
human LILRA1 = target: T1, human LILRA1 (human, UniProt O75019 17-489); assay: FACS, 293F-hLILRA1 cells
T1 construct: whole, on cells; also called hLILRA1

human LILRA2 = target: T2, human LILRA2 (human, UniProt Q8N149 24-483); assay: FACS, 293F-hLILRA2 cells
T2 construct: whole, on cells; also called hLILRA2

human LILRA3 = target: T3, human LILRA3 (human, UniProt Q8N6C8 24-439); assay: FACS, 293F-hLILRA3 cells
T3 construct: whole, on cells; also called hLILRA3

human LILRA4 = target: T4, human LILRA4 (human, UniProt P59901 24-499); assay: FACS, 293F-hLILRA4 cells
T4 construct: whole, on cells; also called hLILRA4

human LILRA5 = target: T5, human LILRA5 (human, UniProt A6NI73 42-299); assay: FACS, 293F-hLILRA5 cells
T5 construct: whole, on cells; also called hLILRA5

human LILRB1 = target: T6, human LILRB1 (human, UniProt Q8NHL6 24-650); assay: FACS, 293F-hLILRB1 cells
T6 construct: whole, on cells; also called hLILRB1

human LILRB2 = target: T7, human LILRB2 (human, UniProt Q8N423 22-597); assay: FACS, 293F-hLILRB2 cells
T7 construct: whole, on cells; also called hLILRB2

human LILRB3 = target: T8, human LILRB3 (human, UniProt O75022 24-631); assay: FACS, 293F-hLILRB3 cells
T8 construct: whole, on cells; also called hLILRB3

human LILRB4 = target: T9, human LILRB4 (human, UniProt Q8NHJ6 22-448); assay: FACS, 293F-hLILRB4 cells
T9 construct: whole, on cells; also called hLILRB4
Description: The subcloning plates were screened by protein or cell-based ELISA, and the subclones with good binding ability were expanded to 24-wells for confirmation tests. The specificity and cross-reactivity of these subclones were confirmed with FACS analysis. […] Fluorescent dye-conjugated secondary antibody was used to detect the binding of the primary antibody with the cells. Median fluorescence intensity (MFI) was measured by FACS analysis. […]

human LILRB5 = target: T10, human LILRB5 (human, UniProt O75023 24-590); assay: FACS, 293F-hLILRB5 cells
T10 construct: whole, on cells; also called hLILRB5
T10 sequence (O75023 24-590): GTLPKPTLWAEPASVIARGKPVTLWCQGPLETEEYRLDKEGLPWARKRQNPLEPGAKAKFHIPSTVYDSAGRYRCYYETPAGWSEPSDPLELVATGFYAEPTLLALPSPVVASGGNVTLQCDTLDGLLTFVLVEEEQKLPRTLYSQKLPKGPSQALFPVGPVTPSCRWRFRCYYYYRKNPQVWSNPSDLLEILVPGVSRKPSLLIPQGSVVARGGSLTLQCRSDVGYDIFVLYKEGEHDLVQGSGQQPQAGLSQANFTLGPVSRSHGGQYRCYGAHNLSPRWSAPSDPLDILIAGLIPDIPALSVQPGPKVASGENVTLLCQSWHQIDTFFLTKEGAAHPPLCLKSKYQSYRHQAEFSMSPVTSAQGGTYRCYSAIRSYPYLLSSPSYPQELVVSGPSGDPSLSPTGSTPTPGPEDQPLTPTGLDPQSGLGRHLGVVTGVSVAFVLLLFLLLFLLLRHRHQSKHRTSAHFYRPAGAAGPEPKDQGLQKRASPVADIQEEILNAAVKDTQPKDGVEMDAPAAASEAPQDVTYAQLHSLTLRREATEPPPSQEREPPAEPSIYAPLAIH

T5 sequence (A6NI73 42-299): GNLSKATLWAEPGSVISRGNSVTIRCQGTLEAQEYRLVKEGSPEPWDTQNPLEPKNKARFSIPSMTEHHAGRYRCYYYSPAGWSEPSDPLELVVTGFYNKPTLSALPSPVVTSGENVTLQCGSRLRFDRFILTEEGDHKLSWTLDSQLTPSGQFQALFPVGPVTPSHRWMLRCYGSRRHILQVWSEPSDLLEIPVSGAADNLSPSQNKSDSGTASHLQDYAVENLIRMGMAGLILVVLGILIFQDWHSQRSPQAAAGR
T7 sequence (Q8N423 22-597): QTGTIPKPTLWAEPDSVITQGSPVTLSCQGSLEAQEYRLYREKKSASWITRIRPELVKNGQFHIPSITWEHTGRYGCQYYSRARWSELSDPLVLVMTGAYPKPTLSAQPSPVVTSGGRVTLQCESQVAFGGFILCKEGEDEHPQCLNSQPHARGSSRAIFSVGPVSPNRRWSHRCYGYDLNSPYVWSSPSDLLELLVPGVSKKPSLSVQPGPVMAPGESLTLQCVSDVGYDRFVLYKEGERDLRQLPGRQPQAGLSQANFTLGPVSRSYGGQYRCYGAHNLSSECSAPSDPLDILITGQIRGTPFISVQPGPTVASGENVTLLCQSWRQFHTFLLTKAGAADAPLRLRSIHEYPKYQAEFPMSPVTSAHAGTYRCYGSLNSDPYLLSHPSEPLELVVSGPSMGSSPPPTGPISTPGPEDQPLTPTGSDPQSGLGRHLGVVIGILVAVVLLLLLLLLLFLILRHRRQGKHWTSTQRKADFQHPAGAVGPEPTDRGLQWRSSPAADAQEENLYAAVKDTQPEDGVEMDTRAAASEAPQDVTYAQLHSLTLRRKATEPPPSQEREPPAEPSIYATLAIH
T3 sequence (Q8N6C8 24-439): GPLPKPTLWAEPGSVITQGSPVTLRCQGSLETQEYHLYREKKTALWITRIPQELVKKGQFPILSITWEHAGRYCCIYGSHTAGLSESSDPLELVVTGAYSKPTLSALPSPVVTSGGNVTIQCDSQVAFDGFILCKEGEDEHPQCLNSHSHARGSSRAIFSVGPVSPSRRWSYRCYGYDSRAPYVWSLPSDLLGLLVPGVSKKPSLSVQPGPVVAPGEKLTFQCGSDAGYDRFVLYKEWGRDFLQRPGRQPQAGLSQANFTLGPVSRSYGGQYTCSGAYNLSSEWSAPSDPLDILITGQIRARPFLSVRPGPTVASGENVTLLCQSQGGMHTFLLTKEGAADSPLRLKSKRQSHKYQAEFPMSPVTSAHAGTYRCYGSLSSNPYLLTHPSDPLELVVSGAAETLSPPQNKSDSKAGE
T6 sequence (Q8NHL6 24-650): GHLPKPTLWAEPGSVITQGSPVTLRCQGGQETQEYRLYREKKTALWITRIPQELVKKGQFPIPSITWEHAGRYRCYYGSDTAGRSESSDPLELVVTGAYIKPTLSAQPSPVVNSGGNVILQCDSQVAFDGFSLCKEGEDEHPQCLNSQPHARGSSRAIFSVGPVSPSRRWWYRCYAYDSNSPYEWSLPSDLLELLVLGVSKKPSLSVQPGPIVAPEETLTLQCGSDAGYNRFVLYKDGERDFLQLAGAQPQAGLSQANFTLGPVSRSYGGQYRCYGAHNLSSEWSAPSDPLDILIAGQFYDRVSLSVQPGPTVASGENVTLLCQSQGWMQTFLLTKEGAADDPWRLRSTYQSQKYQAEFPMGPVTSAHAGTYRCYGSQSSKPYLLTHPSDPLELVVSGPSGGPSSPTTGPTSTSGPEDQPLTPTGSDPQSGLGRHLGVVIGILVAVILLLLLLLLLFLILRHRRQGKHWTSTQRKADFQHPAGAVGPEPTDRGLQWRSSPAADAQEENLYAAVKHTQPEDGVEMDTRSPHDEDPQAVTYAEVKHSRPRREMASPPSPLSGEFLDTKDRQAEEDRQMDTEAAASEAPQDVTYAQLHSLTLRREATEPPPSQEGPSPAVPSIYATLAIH
T4 sequence (P59901 24-499): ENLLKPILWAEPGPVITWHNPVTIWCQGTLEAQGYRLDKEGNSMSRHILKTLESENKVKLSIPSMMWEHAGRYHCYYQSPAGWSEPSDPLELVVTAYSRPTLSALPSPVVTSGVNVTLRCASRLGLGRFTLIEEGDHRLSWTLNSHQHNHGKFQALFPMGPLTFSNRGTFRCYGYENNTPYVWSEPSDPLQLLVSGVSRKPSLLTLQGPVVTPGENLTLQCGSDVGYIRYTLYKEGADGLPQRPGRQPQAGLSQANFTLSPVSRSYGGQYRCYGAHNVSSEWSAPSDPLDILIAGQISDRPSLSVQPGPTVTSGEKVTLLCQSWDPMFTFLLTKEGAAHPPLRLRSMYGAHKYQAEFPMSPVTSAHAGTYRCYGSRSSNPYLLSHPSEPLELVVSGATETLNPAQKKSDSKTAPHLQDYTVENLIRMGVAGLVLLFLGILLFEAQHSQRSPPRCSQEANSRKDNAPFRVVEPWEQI
T1 sequence (O75019 17-489): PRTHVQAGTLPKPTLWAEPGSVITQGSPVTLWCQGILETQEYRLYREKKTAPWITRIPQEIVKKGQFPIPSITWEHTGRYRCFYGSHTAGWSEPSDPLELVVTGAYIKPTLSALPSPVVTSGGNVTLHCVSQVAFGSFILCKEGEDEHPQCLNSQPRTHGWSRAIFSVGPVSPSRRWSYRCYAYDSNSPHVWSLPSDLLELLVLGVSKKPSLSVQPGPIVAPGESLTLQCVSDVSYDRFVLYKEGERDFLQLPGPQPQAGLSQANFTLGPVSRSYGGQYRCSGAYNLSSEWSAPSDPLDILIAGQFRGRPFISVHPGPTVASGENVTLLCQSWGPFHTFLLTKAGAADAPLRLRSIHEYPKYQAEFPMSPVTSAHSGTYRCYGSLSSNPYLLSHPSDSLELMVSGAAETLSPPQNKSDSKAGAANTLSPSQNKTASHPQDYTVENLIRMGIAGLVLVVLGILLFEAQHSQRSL
T8 sequence (O75022 24-631): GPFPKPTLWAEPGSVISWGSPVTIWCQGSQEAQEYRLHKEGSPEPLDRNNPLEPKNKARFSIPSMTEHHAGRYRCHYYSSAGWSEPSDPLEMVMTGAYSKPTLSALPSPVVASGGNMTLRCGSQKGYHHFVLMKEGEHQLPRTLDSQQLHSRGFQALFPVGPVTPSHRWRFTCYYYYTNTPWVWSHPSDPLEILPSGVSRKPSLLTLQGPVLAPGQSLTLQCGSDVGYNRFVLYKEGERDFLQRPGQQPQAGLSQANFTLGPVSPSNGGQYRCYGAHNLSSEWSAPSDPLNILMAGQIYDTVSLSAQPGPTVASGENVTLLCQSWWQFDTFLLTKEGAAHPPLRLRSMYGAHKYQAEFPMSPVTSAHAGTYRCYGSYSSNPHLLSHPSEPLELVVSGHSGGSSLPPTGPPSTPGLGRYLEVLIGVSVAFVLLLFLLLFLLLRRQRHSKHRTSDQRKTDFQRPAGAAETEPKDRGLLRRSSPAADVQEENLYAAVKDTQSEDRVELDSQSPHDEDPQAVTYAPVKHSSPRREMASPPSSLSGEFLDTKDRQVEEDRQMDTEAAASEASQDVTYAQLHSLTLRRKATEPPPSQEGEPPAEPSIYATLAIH
T2 sequence (Q8N149 24-483): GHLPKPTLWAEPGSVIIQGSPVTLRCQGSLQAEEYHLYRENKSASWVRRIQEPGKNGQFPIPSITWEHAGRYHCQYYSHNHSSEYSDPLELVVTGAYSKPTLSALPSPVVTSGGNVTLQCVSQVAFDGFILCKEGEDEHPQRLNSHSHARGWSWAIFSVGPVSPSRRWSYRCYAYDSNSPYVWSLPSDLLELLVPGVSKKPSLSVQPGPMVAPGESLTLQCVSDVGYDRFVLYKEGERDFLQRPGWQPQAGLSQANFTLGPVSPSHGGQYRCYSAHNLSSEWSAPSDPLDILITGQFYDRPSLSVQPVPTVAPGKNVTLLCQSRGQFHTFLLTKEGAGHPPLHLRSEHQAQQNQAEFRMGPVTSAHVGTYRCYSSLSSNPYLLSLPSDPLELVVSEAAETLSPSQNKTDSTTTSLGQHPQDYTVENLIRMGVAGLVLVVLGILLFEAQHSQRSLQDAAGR

Binder	MFI (human LILRA1)	MFI (human LILRA2)	MFI (human LILRA3)	MFI (human LILRA4)	MFI (human LILRA5)	MFI (human LILRB1)	MFI (human LILRB2)	MFI (human LILRB3)	MFI (human LILRB4)	MFI (human LILRB5)
7-B4-C1-C9 (antibody, V domains shown, mouse monoclonal hybridoma antibody) VH: EVQLQQSGTELVKPGASVKLSCKASGYTFTNYWMHWVKQRPGQGLEWIGEINPSNGRTNYNEKFKTKATLTVDKSSSTAYMQLSSLTSEDSAVYYCARSTYYGYDWYFDVWGAGTTVTVSS VL: DIVLTQSPSSMYASLGERVTITCKASQDINSYLSWFQQKPGKSPKTLIYRANRLLDGVPSRFSGGGSGQDYSLTISSLEHEDMGIYYCLQCDEFPHTFGGGTKLEIK	27.5 MFI	21.6 MFI	25.2 MFI	26.2 MFI	28.2 MFI	27.7 MFI	32.2 MFI	26.1 MFI	3950 MFI	17.8 MFI
2-H8-C9-F7-E2 (antibody, V domains shown, mouse monoclonal hybridoma antibody) VH: EVQLQQSGAELVKPGASVKLSCKASGYTFTNYWMHWVKQRPGQGLEWIGEINPSNGRTNYNEKFKSKATLTVDKSSSTAYMQLSSLTSEDSAVYYCARGSLTTVVPFDYWGQGTTLTVSS VL: DIQMTQTPSSLSASLGGKVTITCKASQDINNYIAWYQHKPGKGPRLLIHYTSTLQPGIPSRFSGSGSGRDYSFSISNLEPEDIATYFCLQYDILLTFGGGTKLEK	22.6 MFI	19.7 MFI	21.7 MFI	23 MFI	22.6 MFI	25.4 MFI	28.8 MFI	26.7 MFI	1710 MFI	21.6 MFI
4-E6-E4-B12 (antibody, V domains shown, mouse monoclonal hybridoma antibody) VH: EVQLKESGAELVKPGASVKLSCKASGYTFTSHWMHWVKQRPGQGLEWIGEINPSNGRTNYNEKFTSKATLTVDQSSSTAYMQLSSLTSEDSAVYYCARGNLTTVVPFDYWGQGTALTVSS VL: DIVMTQSPSSLSASLGGKVTITCKASQDINKFIAWYQHKPGKGPRLLIHFTSTLQPGIPSRFSGSGSGRDYSFSISNLEPEDIATYFCLQYDLLLTFGGGTKLEIK	24.4 MFI	21.9 MFI	23.7 MFI	23.2 MFI	32.6 MFI	23.6 MFI	58 MFI	27.1 MFI	1530 MFI	21.4 MFI
42-C8-A12-F3-D11 (antibody, V domains shown, mouse monoclonal hybridoma antibody) VH: EVHLVESGGDLVKPGGSLKLSCAASGFTFSSHGMSWVRQTPDKRLEWVATISSGGIYTYHPDSVKGRFSISRDNAKKTLYLQMSSLKSEDTGIYYCTRGQVGNWYFDVWGAGTTVTVSS VL: DIVITQSPAIMSASPGEKVTINCSASSSVSYMHWFQQTPGTSPKLWIYSTSNLASGVPARFSGSGSGTFYSLTISRMEAEDAATYYCQQRSSYPLTFGAGTKLELK	27.3 MFI	28.1 MFI	24.5 MFI	27.2 MFI	27.9 MFI	29.6 MFI	34.5 MFI	602 MFI	1290 MFI	22.2 MFI
25-E7-A10-H6 (antibody, V domains shown, mouse monoclonal hybridoma antibody) VH: EVQLVESGGGLVQPGGSRKLSCAASGFTFSTFGMHWVRQAPEKGLEWVAYISSGSSTIYYADTVKGRFTISRDNPKNTLFLQMTSLRSEDTAMYYCARSTGTGAMDYWGQGTSVTVSS VL: DIQMTQTTSSLSASLGDRVTISCRASQDISKYLNWYQQKPDGTVKLLIYYTSRLHSGVPSRFSGSGSGTDYSLTISNLEQEDIATYFCQQGNTLPWTFGGGTKLEIK	23.1 MFI	21 MFI	20.1 MFI	19.9 MFI	19.9 MFI	22.5 MFI	33.2 MFI	23.1 MFI	759 MFI	16.3 MFI
27-G5-E9-B8 (antibody, V domains shown, mouse monoclonal hybridoma antibody) VH: EVQLVESGGGLVQPGGSRKLSCAASGFTFSSFGMHWVRQAPEKGLEWVAYISSGSSTIYYADTVKGRFTISRDNPKNTLFLQMTSLRSEDTAMYYCARSTGTGAMDYWGQGTSVTVSS VL: DIQMTQTTSSLSASLGDSVTFSCRASQDISNYLNWYQQKPDGTVKLLISYTSRLHSGVPSRFSGSGSGTDYSLTISNLEQEDIATYFCQQGNALPWTFGGGTKLEIK	24 MFI	17.7 MFI	19.5 MFI		19.1 MFI	20.2 MFI	25.4 MFI	23.7 MFI	213 MFI	18.7 MFI
26-H9-B9-B7 (antibody, V domains shown, mouse monoclonal hybridoma antibody) VH: EVQRVESGGGLVQPGGSRKLSCAASGFTFSSFGMHWVRQAPEKGLEWVAYISSGSSTIYYADTVKGRFTISRDNPKNTLFLQMTSLRSEDTAMYYCARSDGKGAMDYWGQGTSVTVSS VL: DIVMTQSTSSLSASLGDRVTISCRASQDISNYLNWYQQKPDGTVKLLIYYTSRLHSGVPSRFSGSGSGTDYSLTISNLEQEDIATYFCQQGNTLPWTFGGGTKLEIK	21.3 MFI	17.9 MFI	19.1 MFI	19.4 MFI	19.6 MFI	20.8 MFI	28.8 MFI	23.6 MFI	441 MFI	19.6 MFI
2-H1-D7-E5-D5 (antibody, V domains shown, mouse monoclonal hybridoma antibody) VH: EVHLVESGGGLVQPGGSRKLSCAASGFTFSSFGMHWVRQPPEKGLEWVAYISSGSSSIYYADTVKGRFTISRDNPKNTLFLQMTSLRSEDTAMYYCARGTGTGAMDYWGQGTSVTVSS VL: DIQMTQTTSSLSASLGDRVTISCRTSQDISNYLNWYQQKPDGTVKLLIYYTSKLHSGVPSRFSGSGSGTDYSLTISNLDQEDIATYFCQQGNTLPWTFGGGTKLEIK	21.9 MFI	20 MFI	20 MFI	23.7 MFI	24.7 MFI	25.2 MFI	31.5 MFI	23 MFI	915 MFI	22.6 MFI
10-H9-E3-G3 (antibody, V domains shown, mouse monoclonal hybridoma antibody) VH: EVQRVESGGGLVQPGGSRKLSCAASGFTFSSFGMHWVRQAPEKGLEWVAYISSGSSAMYYADTVKGRFTISRDNPKNTLFLQMTSLRSEDTAMYYCARSDGKGAMDYWGQGTSVTVSS VL: DIQMTQTTSSLSASLGDRVTISCRASQDISNYLNWYQQKPDGTVKLLVYYTSRLHSGVPSRFSGSGSGTDYSLTISNLEQEDIATYFCQQGNTLPWTFGGGTKLEIK	21.6 MFI	19.9 MFI	18.3 MFI	20.7 MFI	25 MFI	21 MFI	29.5 MFI	22.7 MFI	210 MFI	21.8 MFI
27-D11-C2-A10 (antibody, V domains shown, mouse monoclonal hybridoma antibody) VH: EVQLVESGGGLVQPGGSRKLSCAASGFTFSVFGVHWVRQAPEKGLEWVAYISSGSNTIHYADTVKGRFTISRDIPKNTLFLQMTSLRSEDTAMYYCARSSGTGAMDYWGQGTSVTVSS VL: DIQMTQSTSSLSASLGDRVSISCRASQDISNYLNWYQQKPDGAVKLLIYYTSRLHSGVPSRFSGSGSGTDYSLTISNLDQEDIATYFCQQGNTLPWTFGGGTKLELK	21.6 MFI	17.8 MFI	17.2 MFI	19.6 MFI	17.2 MFI	20.8 MFI	28.3 MFI	19.7 MFI	588 MFI	18.8 MFI
48-E11-H7-B5 (antibody, V domains shown, mouse monoclonal hybridoma antibody) VH: EVQLVESGGGLVKPGGSLKLSCAASGFTFSSYAMSWVRQTPEKRLEWVASITIGDDTYYPDSVKGRFTISRDHAKNILYLQVSSLRSEDTAMYSCARGVNSYGSSYRYFDVWGAGTTVTVSS VL: DIVMTQSHKFMSTSVGDRVSITCKASQDVSTAVAWYQQKPGQSPKLLIYWASTRHTGVPDRFTGSGSGTDYTLTISSVQAEDLALYYCQQHYSIPFTFGAGTKLEK	25.1 MFI	22.6 MFI	24.1 MFI	24.3 MFI	359 MFI	27.3 MFI	45.8 MFI	26.7 MFI	2760 MFI	18.9 MFI

Source: patent US20250361295A1 (ANTENGENE BIOLOGICS, published 2025)
